Measurements from US20250376539A1 (KIRA PHARMACEUTICALS SUZHOU, published 2025).

Key:
[1] = molecular target: T1, recombinant human complement C2 (NP_000054.2), C-terminal 6His-tag, made in house (CHO cell expression) (human, UniProt P06681 21-752); experiment: BLI (Gator), antibody on probe; 600 s association at pH 7.4, 600 s dissociation at pH 7.4
T1 construct: a linker before the tag is not described; also called human C2; Human C2
T1 sequence: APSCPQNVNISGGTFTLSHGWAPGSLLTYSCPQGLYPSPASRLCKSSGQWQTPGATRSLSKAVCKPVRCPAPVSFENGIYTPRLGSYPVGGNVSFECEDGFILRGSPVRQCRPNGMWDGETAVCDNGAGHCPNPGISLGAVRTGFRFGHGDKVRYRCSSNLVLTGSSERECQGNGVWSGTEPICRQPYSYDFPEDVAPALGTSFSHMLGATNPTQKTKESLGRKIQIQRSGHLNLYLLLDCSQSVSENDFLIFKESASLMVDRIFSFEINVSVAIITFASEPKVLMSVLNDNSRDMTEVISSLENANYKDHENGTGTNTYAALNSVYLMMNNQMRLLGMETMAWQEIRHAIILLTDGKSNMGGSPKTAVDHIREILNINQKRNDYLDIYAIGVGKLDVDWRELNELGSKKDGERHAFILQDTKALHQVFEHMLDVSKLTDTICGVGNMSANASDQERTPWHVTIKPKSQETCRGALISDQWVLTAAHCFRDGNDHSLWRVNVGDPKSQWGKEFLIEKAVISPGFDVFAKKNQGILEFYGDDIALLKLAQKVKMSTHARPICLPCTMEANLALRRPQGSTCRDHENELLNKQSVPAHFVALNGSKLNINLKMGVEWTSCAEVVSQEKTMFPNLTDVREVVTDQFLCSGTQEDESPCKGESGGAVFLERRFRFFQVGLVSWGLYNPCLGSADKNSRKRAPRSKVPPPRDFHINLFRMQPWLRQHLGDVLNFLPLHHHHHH
Description: (§1) The histidine mutant constructs in Table 4 were tested for their pH-dependent dissociation from human C2. Probe-immobilized anti-C2 antibodies were incubated with C2 at pH 7.4 for 600s, followed by a 600s dissociation period in K Buffer at pH 7.4 or pH 5.8. The data were processed and analyzed by the Gator evaluation software.

[2] = molecular target: T1, recombinant human complement C2 …; experiment: BLI (Gator), antibody on probe; 600 s association at pH 7.4, 600 s dissociation at pH 5.8
Description: as §1

[3] = molecular target: T1, recombinant human complement C2 …; experiment: BLI (Gator); ratio of dissociation at pH 5.8 to pH 7.4
Description: as §1

Binder | Dissociation (%) pH 7.4 [1] [%] | Dissociation (%) pH 5.8 [2] [%] | Fold dissociation pH 5.8/pH 7.4 [3] [fold]
3.2 H2-10 parental (antibody, V domains shown, Histidine mutant of 3.2) VH: EVQLLESGGGLVQPGGSLRLSCAASGFTFRHYAMSWVRQAPGKGLEWVSLISGSGASTHYADSVKGRFTISRDNSENMLYLQMNSLRAEDTAVYYCAKDSLAVAGSEYFQHWGQGTLVTVSS VL: SYVLTQAPSVSVAPGQTARITCGGNYFGGKSVHWYQQRPGQAPVLVVYDDSDRPSGIPERFSGSKSGNTATLAISRVEAGDEAAYYCQVYDTSSDHWVFGGGTKLTVL | 7.74 | 51.3 | 6.6
3.2 H2-10 × L2-1 (antibody, V domains shown, Histidine mutant of 3.2) VH: EVQLLESGGGLVQPGGSLRLSCAASGFTFRHYAMSWVRQAPGKGLEWVSLISGSGASTHYADSVKGRFTISRDNSENMLYLQMNSLRAEDTAVYYCAKDSLAVAGSEYFQHWGQGTLVTVSS VL: SYVLTQAPSVSVAPGQTARITCGGNYFGGKSVHWYQQRPGQAPVLVVYHDSDRPSGIPERFSGSKSGNTATLAISRVEAGDEAAYYCQVYDTSSDHWVFGGGTKLTVL | 13.9 | 81.3 | 5.8
3.2 H2-10 × L1-7 (antibody, V domains shown, Histidine mutant of 3.2) VH: EVQLLESGGGLVQPGGSLRLSCAASGFTFRHYAMSWVRQAPGKGLEWVSLISGSGASTHYADSVKGRFTISRDNSENMLYLQMNSLRAEDTAVYYCAKDSLAVAGSEYFQHWGQGTLVTVSS VL: SYVLTQAPSVSVAPGQTARITCGGNYFGHKSVHWYQQRPGQAPVLVVYDDSDRPSGIPERFSGSKSGNTATLAISRVEAGDEAAYYCQVYDTSSDHWVFGGGTKLTVL | 4.05 | 52 | 12.8
3.2 H2-10 × L2-5 (antibody, V domains shown, Histidine mutant of 3.2) VH: EVQLLESGGGLVQPGGSLRLSCAASGFTFRHYAMSWVRQAPGKGLEWVSLISGSGASTHYADSVKGRFTISRDNSENMLYLQMNSLRAEDTAVYYCAKDSLAVAGSEYFQHWGQGTLVTVSS VL: SYVLTQAPSVSVAPGQTARITCGGNYFGGKSVHWYQQRPGQAPVLVVYDDSDHPSGIPERFSGSKSGNTATLAISRVEAGDEAAYYCQVYDTSSDHWVFGGGTKLTVL | 5.33 | 51.6 | 9.7
3.2 H2-10 × L1-8 (antibody, V domains shown, Histidine mutant of 3.2) VH: EVQLLESGGGLVQPGGSLRLSCAASGFTFRHYAMSWVRQAPGKGLEWVSLISGSGASTHYADSVKGRFTISRDNSENMLYLQMNSLRAEDTAVYYCAKDSLAVAGSEYFQHWGQGTLVTVSS VL: SYVLTQAPSVSVAPGQTARITCGGNYFGGHSVHWYQQRPGQAPVLVVYDDSDRPSGIPERFSGSKSGNTATLAISRVEAGDEAAYYCQVYDTSSDHWVFGGGTKLTVL | 5 | 51.8 | 10.4
3.2 H2-10 × L2-3 (antibody, V domains shown, Histidine mutant of 3.2) VH: EVQLLESGGGLVQPGGSLRLSCAASGFTFRHYAMSWVRQAPGKGLEWVSLISGSGASTHYADSVKGRFTISRDNSENMLYLQMNSLRAEDTAVYYCAKDSLAVAGSEYFQHWGQGTLVTVSS VL: SYVLTQAPSVSVAPGQTARITCGGNYFGGKSVHWYQQRPGQAPVLVVYDDHDRPSGIPERFSGSKSGNTATLAISRVEAGDEAAYYCQVYDTSSDHWVFGGGTKLTVL | 5.69 | 46.2 | 8.1
3.2 H2-10 × L2-6 (antibody, V domains shown, Histidine mutant of 3.2) VH: EVQLLESGGGLVQPGGSLRLSCAASGFTFRHYAMSWVRQAPGKGLEWVSLISGSGASTHYADSVKGRFTISRDNSENMLYLQMNSLRAEDTAVYYCAKDSLAVAGSEYFQHWGQGTLVTVSS VL: SYVLTQAPSVSVAPGQTARITCGGNYFGGKSVHWYQQRPGQAPVLVVYDDSDRHSGIPERFSGSKSGNTATLAISRVEAGDEAAYYCQVYDTSSDHWVFGGGTKLTVL | 5.97 | 52.6 | 8.8
